In patent publication US20220298230A1 (ROCKEFELLER UNIVERSITY, published 2022):

Key:
FcγRIIIb [1] = molecular target: T1, FcγRIIIb (human, UniProt O75015 17-200); assay: stated in the variant's description; FcγR binding profile in FIG. 22A
T1 construct: also called FcγRIIIa/b (second member)

FcγRIIIa [2] = molecular target: T2, FcγRIIIa (human, UniProt P08637 17-208); assay: as above
T2 construct: also called FcγRIIIa/b (first member)

FcγRIIIb [3] = molecular target: T1, FcγRIIIb; assay: stated in the variant's description; method not given
FcγRIIIa [4] = molecular target: T2, FcγRIIIa; assay: as above

T2 sequence (P08637 17-208 limits assumed): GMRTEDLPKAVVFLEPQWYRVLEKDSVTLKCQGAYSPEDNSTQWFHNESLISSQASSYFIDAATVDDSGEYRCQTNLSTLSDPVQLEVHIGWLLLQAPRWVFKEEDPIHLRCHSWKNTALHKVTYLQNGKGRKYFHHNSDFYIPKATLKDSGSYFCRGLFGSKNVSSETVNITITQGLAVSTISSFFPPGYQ
T1 sequence (O75015 17-200 limits assumed): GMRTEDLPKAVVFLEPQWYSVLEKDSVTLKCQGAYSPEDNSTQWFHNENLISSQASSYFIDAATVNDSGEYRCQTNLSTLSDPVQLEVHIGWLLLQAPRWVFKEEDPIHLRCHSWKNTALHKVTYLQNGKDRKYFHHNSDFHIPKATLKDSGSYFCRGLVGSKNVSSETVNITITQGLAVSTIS

| Binder | binding result (FcγRIIIb [1]) | binding result (FcγRIIIa [2]) | binding result (FcγRIIIb [3]) | binding result (FcγRIIIa [4]) |
| --- | --- | --- | --- | --- |
| 3C05_ALIE (antibody) heavy: not shown light: EIVLTQSPATLSLSPGERATLSCRASQSVSSYLAWYQQKPGQAPRLLIYDASKRATGIPARFSGSGSGTDFTLTISSLEPEDFAVYYCQQRSNWLTFGGGTKVELERTVAAPSVFIFPPSDEQLKSGTASVVCLLNNFYPREAKVQWKVDNALQSGNSQESVTEQDSKDSTYSLSSTLTLSKADYEKHKVYACEVTHQGLSSPVTKSFNRGEC | binds | binds |  |  |
| 1A01_ALIE (antibody) heavy: not shown light: DIQMTQSPSSLSASIGDRVTITCRASQSIRNYLNWYQQKPGKAPKLVIYAVSNLQSGVPSRFSGSGSGTDFTLTISSLQPEDLATYYCQQSYSTLPYTFGQGTKVEIKLERADAAPTVSIFPPSSEQLTSGGASVVCFLNNFYPKDINVKWKIDGSERQNGVLNSWTDQDSKDSTYSMSSTLTLTKDEYERHNSYTCEATHKTSTSPIVKSFNRNEC |  |  | binds | binds |
| Flu1_ALIE (antibody) heavy: not shown light: DIQMTQSPSSLSASVGDRVTITCRTSQSLSSYLHWYQQKPGKAPKLLIYAASSLQSGVPSRFSGSGSGTDFTLTISSLQPEDFATYYCQQSRTFGQGTKVEIKRTVAAPSVFIFPPSDEQLKSGTASVVCLLNNFYPREAKVQWKVDNALQSGNSQESVTEQDSKDSTYSLSSTLTLSKADYEKHKVYACEVTHQGLSSPVTKSFNRGEC |  |  | binds | binds |
| Flu1_afucosylated (antibody, also called the afucosylated antibody) heavy: not shown light: DIQMTQSPSSLSASVGDRVTITCRTSQSLSSYLHWYQQKPGKAPKLLIYAASSLQSGVPSRFSGSGSGTDFTLTISSLQPEDFATYYCQQSRTFGQGTKVEIKRTVAAPSVFIFPPSDEQLKSGTASVVCLLNNFYPREAKVQWKVDNALQSGNSQESVTEQDSKDSTYSLSSTLTLSKADYEKHKVYACEVTHQGLSSPVTKSFNRGEC |  |  | binds | binds |
